Experiment: yeast display, Sf9 membrane polyspecificity reagent, FACS + sequencing; frameworks hold sequencing errors
Outline: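 Nanobodies from a synthetic yeast display library (Saccharomyces cerevisiae BJ5465), induced 36–48 hours with galactose, were stained 1 hour at 4 °C with 10% biotinylated, detergent-solubilized Sf9 membrane reagent, enriched on streptavidin microbeads, then FACS-sorted. Anti-HA (expression) and streptavidin (reagent binding) fluorescence set low and high (top ~1%) gates. Polyreactivity labels come from the gate of origin. Genes were colony-PCR amplified, MiSeq 2 × 250 sequenced and filtered by CDR length.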

Sequence	polyreactivity (PSR sort gate)
QVQLVESGGGLVQAGGSLRLSCAASGSTLTRNTMGCYRQAPAKERELVATNTRSGGSTYYADSVKGRFTISRDNAKNTVYLQMNSLKPEDTAVYYCAVRRQTFRYVYPGMDYWGQGTQVTVSS	high polyreactivity
QVQLVESGGGLVQAGGSLRLSCAASGSTLTSNAMGWYRQAPGKERELVAAIRSGGSTNYADSVKGRFTISRDNAKNTVYLQMNSLKPEDTAVYYCNKDFLWQGYGYSRVSYDYWGQGTQVTVSS	low polyreactivity
QVQLVESGGGLVQAGGSLRLSCAASGSTLTYNAMGWYRQAPGKERELVAAIDWDGDTTYYADSVKGRFTISRDNAKNTVYLQMNSLKPEDTAVYYCAAEFYSLGKAIYEYWGQGTQVTVSS	high polyreactivity
QVQLVESGGGLVQAGGSLRLSCAASGSTLTYYTMGWYRQAPGKERELVARISWSSGRTYYADSVKGRFTISRDNAKNTVYLQMNSLKPEDTAVYYCNADRTYYRGLDYWGQGTQVTVSS	high polyreactivity
QVQLVESGGGLVQAGGSLRLSCAASGSTLVGNTMGWYRQAPGKERELVAAITGVGSRNYADSVKGRFTISRDNAKNTVYLQMNSLKPEDTALYYCAAETWYSVLWEEGYDYWGHGTQVTVSS	low polyreactivity
QVQLVESGGGLVQAGGSLRLSCAASGSTLVIYAMGWYRQAPGKERELVAAINFSDGSTSYADSVKGRFTISRDNAKNTVYLQMNSLKPEDTAVYYWGQGTQVTVSS	low polyreactivity
QVQLVESGGGLVQAGGSLRLSCAASGSTLVIYAMGWYRQAPVKEREFVAAIRCSPGRTYYADSVKGRFTISRDNAKNSVYLQMNSLKPEDTAVYYCAVEYQSWKGWWFDYWGQGTQLTVSS	high polyreactivity
QVQLVESGGGLVQAGGSLRLSCAASGSTLVKYAMGWYRQAPGKERELVAAISWSGGRTYYADSVKGRFTISRDNAKNTVYLQMNSLKPEDTAVYYCAARSTRFYTPGYYYWGQGTQVTVSS	high polyreactivity
QVQLVESGGGLVQAGGSLRLSCAASGSTLVSNAMGWYRQAPGKERELVASISYSATSTYYADSVKGRFTISRDNAKNTVYLQMNSLKPEDTAVYYCAAKTFRSRYYYWGQGTQVTVSS	high polyreactivity
QVQLVESGGGLVQAGGSLRLSCAASGSTLVTYAMGWYRQAPGKERELVAGISSGGSTNYADSVKGRFTISRDNAKNTVYLQMNSLKPEDTAVYYCAAQGSLTWWAATFIYDYWGQGTQVTVSS	low polyreactivity
QVQLVESGGGLVQAGGSLRLSCAASGSTLVYNAMGWYRQAPGKERELVAAISRSGGITYYADSVKGRFTISRDNAKNTVYLQMNSLKPEDTAVYYCNAVVRTRYRPGYDYDYWGQGTQVTVSS	high polyreactivity
QVQLVESGGGLVQAGGSLRLSCAASGSTLVYNDMGWYRQAPGKEREFVAAIRSNDGSTYYADSVKGRFTISRDNAKNTVYLQMNSLKPEDTAVYYCNKDVWDGYDWPEFDYWGQGTQVTVSS	low polyreactivity
QVQLVESGGGLVQAGGSLRLSCAASGSTLWAYAMGWYRQAPGKERELVASISSGGNTNYADSVKGRFTISRDNAKNTVYLQMNSLKPEDTAVYYCAAVGYLYFWYPYDYWGQGTQLTVSS	low polyreactivity
QVQLVESGGGLVQAGGSLRLSCAASGSTLWYNARGWYRDAPGKERELVAAITTSTDSTYYADSVKGRFTISRYNAKNTVYLQMNSLKPEDTAVYYCAAVLHLNGGGKAYDYWGLGTQVTVSS	low polyreactivity
QVQLVESGGGLVQAGGSLRLSCAASGSTLYGYVMGWYRQAPGKERELVADITWSGGSTYYADSVKGRFIISRDNAKNTVYLQMNSLKPEDTAVYYCNADRYGIYYYSRLPFDYWGQGTQVTVSS	low polyreactivity
QVQLVESGGGLVQAGGSLRLSCAASGSTLYHNAMGWYRQAPGKERELVAAITRGGSTYYADSVKGRFTISRDNAKNTVYLQMNILKPEDTAVYYCAVAVLVYYGKYYPYKMYYWGQGTQVTVSS	high polyreactivity
QVQLVESGGGLVQAGGSLRLSCAASGSTLYLNAMGWYRQAPGKERELDASISNGVNTNYADSVKGRFTISRDNAKNTVYLLMNSLKPEDTAVYYCAKEKRFQKTVHRKPAYDYWGQGTQVTVSS	low polyreactivity
QVQLVESGGGLVQAGGSLRLSCAASGSTLYPYAMGWYRQAPGKEWELVAVITLRGGSTYYADSVKGRFTISRDNAKNSVSVQMKSLKPEDTAVYYCAADPRKVHSDDYDYWGQGTQVNVSS	high polyreactivity
QVQLVESGGGLVQAGGSLRLSCAASGSTLYPYDMGWYRPAPGKERELVAAIDSGGSTNYADSVKGRFTISRDNAKNTVYLQMNSLKPEDTAVYYCATEILTSARDTVVYQFYLGYYYWGQGTQVTVSS	low polyreactivity
QVQLVESGGGLVQAGGSLRLSCAASGSTLYRYAMGWYRQAPGKERELVAAITRGSGSTYYADSVKGRFTISRDNAKNTVYLQMNSLKPEDTAVYYCATVKRNHLDGFEYWGQGTQVTVSS	high polyreactivity
QVQLVESGGGLVQAGGSLRLSCAASGSTLYSYAMGWSRQAPGKEREFVAAITSDDGSTYYADSVKGRFTISRDNAKNTVYLQMNSLKPEDTAVYYCATAGSVEYNYWGQGTQVTVSS	low polyreactivity
QVQLVESGGGLVQAGGSLRLSCAASGSTLYVNAMGCYIQAPGKERELVAAISSGGGRTYYADSVKGRFTISRDNAKNTVYLQMNSLKPEETAVYYCARKPYYPYDYWGQGTLVTVSS	low polyreactivity

Sequence	polyreactivity (PSR sort gate)
QVQLVESGGGLVQAGGSLRLSCAASGSTLYWNAMGWYRQAPGKDRELVATINTNGGSTYYADSVKGRFTISRDNAKNTVYLQMNSLKPEDTAVYYCAAQVRQWGYFRYYYWGQGTQVTVSS	high polyreactivity
QVQLVESGGGLVQAGGSLRLSCAASGSTQNVYAMGWYRQATGKERELVAAIRWSGDTYYADSVKGRFTISRDNAKNTVYLQMNSLKPEDTAVYYCAAVPGTTYWQRFDYWGQGTQVTVSS	low polyreactivity
QVQLVESGGGLVQAGGSLRLSCAASGSTQYWNAMGWYRQAPGKERELVAAISRSGGSTYYADSVKGRFTISRDNAKNTVYLQINSLKPEDTAVYYCAARRYVPHTEYYYWGQGTQVTVSS	low polyreactivity
QVQLVESGGGLVQAGGSLRLSCAASGSTRFWKDMGWYRQAPWKERELVAVISFSGVSTYYADSVKGRFTISRDNAKNTVYIQMNRLKPEDTAVYYCAIEDGYSQLKTTFDEPGYGSWGQGTQVNVSS	low polyreactivity
QVQLVESGGGLVQAGGSLRLSCAASGSTRRDYVMGWYRQAPGKERELVAAITSRVDDTYYADSVKGRFTISRDNAKNTVYLQLNSLKPEDTAVYYCAADYSVTLRIGGYYWFYAFDYWGQGTQLTVSS	low polyreactivity
QVQLVESGGGLVQAGGSLRLSCAASGSTRYYAMGWYRQAPGKERELVATISSRSRTYYADSVKGRFTISRDNAKNTVYLQMNSLKPDDPAVYYCAARRRRFYYQYYRYDYWGQGTQVTVSS	high polyreactivity
QVQLVESGGGLVQAGGSLRLSCAASGSTSAYYVMGWYRQAPGKERELVAAIDFSGDSTYYADSVKGRFTISRDNAKNTVYLQMNSLKPEDTAVYYCAAELFNYSSLVSYEYWGQGTQVTVSS	high polyreactivity
QVQLVESGGGLVQAGGSLRLSCAASGSTSRKYTMGWYRQAPGKERELVATISWSGGSTNYADSVKGRFTISRDNAKNTVYLQMNSLKPEDTAVYYCNAYVSPRYRGSRYYYWGQGTQVTVSS	high polyreactivity
QVQLVESGGGLVQAGGSLRLSCAASGSTSRYNAMGWYRQAPGKERELVARINSGGTTNYADSVKGRFTISRDNAKNTVYLQMNSLKPEDTAVYYCNAYYYFWGQGTQVTVSS	low polyreactivity
QVQLVESGGGLVQAGGSLRLSCAASGSTSRYYDMGWYRQAPGTERELVAAITWSGGTTYYADSVKGRFTISRDNAKNTVYLQMNSLKPEDTAVYYCAASRRGGLYTRYHYWGQGTQVTVSS	low polyreactivity
QVQLVESGGGLVQAGGSLRLSCAASGSTSSLNAMGWYRQAPGKEREFVATISFGGGRTYYADSVKGRFTISRDNAKNTVYLQMNSLKPEDTAVYYCAAVGSRWFSQTWRDYWGQGTQVTVSS	high polyreactivity
QVQLVESGGGLVQAGGSLRLSCAASGSTSSVMLWMGWYRQAPGKEREFVAGISWIDATTYYADSVKGRFTISRDNAKNTVYLQMNSLKPEDTAVYYCAADVRWLWYWYGRYDYWGQGTQVTVSS	high polyreactivity
QVQLVESGGGLVQAGGSLRLSCAASGSTSTYNAMGWYRQAPGTERELVAAITESGGSTYYADSVKGRFTISRDNAKNTVYLQMNSLKPEDTAVYYCAADQTYTYDYWGQGTQVTVSS	low polyreactivity
QVQLVESGGGLVQAGGSLRLSCAASGSTSVDYTMGWYRQAPGKESELVAAIDYNGDSTYYADSVKGRFTISRDNAKITVYLQMNRLKPEDTAVYYCAADVWTLDPDEYDYWGQGTQVTLSS	low polyreactivity
QVQLVESGGGLVQAGGSLRLSCAASGSTSVGNAMGWYRQAPGKERELVAAISRIGGTTYYADSVKGRFTISRDNAKNTVYLQMNSLKPEDTAVYYCNVLKRYWSGRVDYWGQGTQVTVSS	high polyreactivity
QVQLVESGGGLVQAGGSLRLSCAASGSTSVYYAMGWYRQTPGKERELVAAITWDDGSTSYADSVKGRFTISRDNAKNTVYLQMNSLKPEDTAVYYCAKDYEYLGAFNYWGQGTQVTVSS	low polyreactivity
QVQLVESGGGLVQAGGSLRLSCAASGSTSWYNAMGWYRQAPGKESELVAAISKSGTSTHYADSVKGRFTISRDNAKNTVYIQMNSRKPEDTAVYYCNRVRYALRRFYGTAVGYWGQGTQVTVSS	low polyreactivity
QVQLVESGGGLVQAGGSLRLSCAASGSTSYTNAMGWYRQAPGKERELVAGITRSGDSTYYADSVKGRFTISRDNAKNTVYLQMNSLKPEDTAVYYCAAEYSGQYYSPVSYLYDYWGQGTQVTVSS	high polyreactivity
QVQLVESGGGLVQAGGSLRLSCAASGSTSYVYAMGWYRQAPGKEREFVAAIRSSGGDTYYADSVKGRFTISRDNAKNTVYLQMNRLKPEDSAVYYCNDRYATAVARFGYWGQGTQVTVSS	high polyreactivity
QVQLVESGGGLVQAGGSLRLSCAASGSTTSVNAMGWYTQAPGKEREFVATISFGGGRTYYADSVKGRFTISRDNAKNTVYLQRNSRKPEDTAVYYCAAVGSRWFSQTWRDYWGQGTQVTVSS	high polyreactivity
QVQLVESGGGLVQAGGSLRLSCAASGSTTYAMGWYRQAPVKERELVAGITFSGGSTNYADSVKGRFTISRDNAKNTVYLQMNSLKPEDTAVYYCAAKLWHHSYRYDYWGQGTQVTVSS	low polyreactivity
